Consider two substances from patent US20140154248A1.

Where two headings read alike, the source gives them in different places.

Common to all, as to assay: cell-based or functional assay
The target of experiment [1] is transferrin receptor (UniProt P02786).
The target in experiment [2] is human mesothelin (human) (UniProt Q13421).
Experiment [3] has the same target. The source holds these as a separate data set.

Sequence of UniProt Q13421 (Q13421 other isoform, or with tags, fused parts or gaps): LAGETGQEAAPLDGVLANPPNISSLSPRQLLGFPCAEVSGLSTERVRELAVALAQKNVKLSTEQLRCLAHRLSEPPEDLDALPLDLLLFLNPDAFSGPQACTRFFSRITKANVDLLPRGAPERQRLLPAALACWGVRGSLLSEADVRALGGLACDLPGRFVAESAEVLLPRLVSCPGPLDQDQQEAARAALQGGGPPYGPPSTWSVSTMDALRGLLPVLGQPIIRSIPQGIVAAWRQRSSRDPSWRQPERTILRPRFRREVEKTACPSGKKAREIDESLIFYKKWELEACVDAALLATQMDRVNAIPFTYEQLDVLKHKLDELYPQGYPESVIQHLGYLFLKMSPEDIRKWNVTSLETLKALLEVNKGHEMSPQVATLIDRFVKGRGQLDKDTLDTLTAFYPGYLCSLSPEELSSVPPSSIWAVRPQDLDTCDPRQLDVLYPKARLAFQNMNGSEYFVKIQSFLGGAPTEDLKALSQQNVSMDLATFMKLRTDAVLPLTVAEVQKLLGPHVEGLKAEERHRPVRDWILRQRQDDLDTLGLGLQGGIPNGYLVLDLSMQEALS
Sequence of UniProt P02786 (P02786 whole entry): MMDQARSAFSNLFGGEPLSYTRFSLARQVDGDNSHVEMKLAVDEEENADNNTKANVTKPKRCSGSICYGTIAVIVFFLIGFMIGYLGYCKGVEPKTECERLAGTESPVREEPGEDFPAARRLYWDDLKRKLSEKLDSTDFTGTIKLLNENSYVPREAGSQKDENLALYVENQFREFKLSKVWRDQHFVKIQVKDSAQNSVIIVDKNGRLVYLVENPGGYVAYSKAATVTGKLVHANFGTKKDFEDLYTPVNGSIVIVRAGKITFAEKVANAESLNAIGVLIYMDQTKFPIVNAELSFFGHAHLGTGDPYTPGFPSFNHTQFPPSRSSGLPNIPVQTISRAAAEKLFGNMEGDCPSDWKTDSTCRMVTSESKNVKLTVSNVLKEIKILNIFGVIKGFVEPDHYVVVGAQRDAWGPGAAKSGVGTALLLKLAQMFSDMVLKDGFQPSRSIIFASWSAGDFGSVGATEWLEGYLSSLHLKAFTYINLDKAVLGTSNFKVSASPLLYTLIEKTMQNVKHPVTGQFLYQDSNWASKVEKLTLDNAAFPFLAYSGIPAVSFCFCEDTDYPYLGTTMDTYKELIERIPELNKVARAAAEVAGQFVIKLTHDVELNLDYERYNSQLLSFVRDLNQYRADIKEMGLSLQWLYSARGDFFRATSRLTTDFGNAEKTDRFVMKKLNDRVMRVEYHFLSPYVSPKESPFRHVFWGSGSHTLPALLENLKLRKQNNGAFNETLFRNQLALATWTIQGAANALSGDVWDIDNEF

Regarding HB21 (anti-transferrin receptor/PE38), in experiment [1], the reduction of viability of patient cells NCI-M-02 and NCI-M-03 (crystal violet) is 90%.

With “SS1P (SS1 (dsFv)-PE38) (from UniProt P11439 278-638)”, the decrease in viability of patient cells NCI-M-02 and NCI-M-03 (crystal violet) in experiment [2] was greater than 60%. In experiment [3], this substance yielded an EC50 (ng/ml), cytotoxicity WST-8, A431/K5 cells of 0.17 ng/mL; an EC50 (ng/ml), cytotoxicity WST-8, A1847 cells of 4.59 ng/mL; an EC50 (ng/ml), cytotoxicity WST-8, HAY cells of 4.79 ng/mL; an EC50 (ng/ml), cytotoxicity WST-8, KB31 cells of 0.47 ng/mL. In experiment [3], this substance displayed an EC50 (ng/ml), cytotoxicity WST-8, L55 cells of 5.32 ng/mL; an EC50 (ng/ml), cytotoxicity WST-8, M30 cells of 2.56 ng/mL; an EC50 (ng/ml), cytotoxicity WST-8, OVACR-8 cells of 1.4 ng/mL; a decrease in viability of patient cells NCI-M-02 and NCI-M-03 (crystal violet) greater than 65%. Also, the decrease in viability of patient cells NCI-M-16 and NCI-M-19 (crystal violet) in experiment [3] was greater than 75%.
